Assay results: the DeepSol protein solubility set

Test: soluble on expression in E. coli; label from the status in PepcDB or PDB records

| Sequence | soluble on expression in E. coli |
| --- | --- |
| MGSDKIHHHHHHENLYFQGDSFKTKSGKELTITFIKHGSLMLTYDNHSIQVDPVSEYADYTTFPKADIILITHEHGDHLDPKAIQAVEKSDTEIIANENSQKKLGKGKVLKNGDTDTSISYMKIEAVPAYNTTPGRDKYHPRHRDNGYILTFDGLRVYIAGDTEDIPEMKDLKDIDIAFLPVNQPYTMTVSQAAKAARMFSPKILYPYHYGDTKIGELKDALKDSGIDVRIRELQ | soluble |
| TLKGKTALVTGSTSGIGLGIAQVLARAGANIVLNGFGDPAPALAEIARHGVKAVHHPADLSDVAQIEALFALAEREFGGVDILVNNAGIQHVAPVEQFPLESWDKIIALNLSAVFHGTRLALPGMRARNWGRIINIASVHGLVGSTGKAAYVAAKHGVVGLTKVVGLETATSNVTCNAICPGWVLTPLVQKQIDDRAANGGDPLQAQHDLLAEKQPSLAFVTPEHLGELVLFLCSEAGSQVRGAAWNVDGGWLAQ | soluble |
| MHRRRSGPTSQPLARGERGLPANRSFASLIAWLTSVRLLCRSPPFCCFYSLSTYTTVMYTDGQYDYDVAVVGGGPAGLTSALYTSRLGMDTIVINRGGGRAAMMTDTHNVIGVTEDVSGNEFLETAREQVQDYGGTYERGFVESVDPLADEEDGFTVTTSDGELAVKRVVLATGFADERPDPPLPRTGKGLHWCLHCDAFMFVGEPVFVMGTGEAAAHVAMIMLNYTDDVDILTRGETPEWSDETQTMLDNHPVEIVETELSGKQTDDDGWLSAYEFEDGSVREYKGGFPMLGSDYHAELADELGLDRNDDGTVAVDDHGETSVSGVYAVGDLTPGHNQIPIAMGEGADAGIAIHKDLRKYPRSVDDIESEGAVEDVEVPAVSEELFATALTHEGHAAGPRSEEAPEVRADDDLEHHHHHH | not soluble |
| MKWRSRQLSFSSAKWYGDVIWIFDPGIIGAQIDNEGDLKKCFIQTLFHSTGSRQSIRIWWREIMLSLILRIYLDKFLPWISLSIKEVGESSVINFSLWGCLHGTRFRRWYSPFQKLSALAITKKDVISSSWRCFNGMRCN | soluble |
| GHMPFEWVKQYDYEDIIYETYNGIAKITINRPEVHNAFRPKTVNEMIDAFTKARDDSNIGVIILTGAGGKAFCSGGDQKVRGHGGYVGEDEIPRLNVLDLQRLIRVIPKPVIAMVAGYAIGGGHVLHVVCDLTIAADNAIFGQTGPKVGSFDGGYGAGYLARIVGHKKAREIWYLCRQYTAQEALEMGLVNKVVPLEQLEEETVKWAQEILEKSPTAIRFLKAAFNADSDGLAGIQQLAGDATLLFYTTEEAKEGMRAFKEKRKPDFSQFPRFP | soluble |
| MSTFSLLRLPQKTLKNVILQMGHIELICTSLLSNKTKHFIREFCIFKASRFSIELNQSVQFKMFNNGRWSEYSFKNGMICITSFGIIQITMTFRTPQFNAGSWFNHFLCVLSPSKIESVTVTDAFDELRFQLVKKFLEKIQFMVLWIRTTSATSHMVRLFSEVLPVDQFWLSQDDRLNSSQFSALRPVLSKELETIFIDNRMPLNDLLITCSTAIHIIKSPLTDKEINVFLKHWMTGLKPELEHIYIEKSGVFNQTQLLDGINHDAPTDRKFKMYGNDAFRGIDLHLGQGIKATLVYENDFFHSKIHIASHNSKYISFE | not soluble |
| MTLKLTYFDIRGLAEPIRLLLNDQEIPFEDNRISREEWAEMKSTMIFAQLPCLHIGTETIVQSAAILRHLGRIYGLNGSTESETSFIDMFSEGLRDLRTKYFTMIKTDYEDGKEAYITETLPGELLRIEKLFCTFNNGENFVSGDKLSYADYALFELLDIHLILTPTALNGTPALKRFHGRFAERPNMRLYLNKRAELNPFVSGNGKQ | not soluble |
| MAHHHHHHVSASPPQRDRGSPPTRPLSEPQDVDAPAAGTVQALRQAVEAQEACVRLLRARQAAREALLRHTRRLLTADDSIEWPGSVEQLVRQVEASLHKLQQAHSEAAAPAATTADNVAPTSAPSRSPRNAAGDADPSADPLARIFHSGVEAQLAAVAEPPHTLPASTLASRSSTAKRRKEAGESGLTNAVSTTSPPPGGPFPPRSAAMTALLARSASRQEAGHAAMLAALSALELSLMSNSGATEVGRDVHNAEPAWLRQVDSDSANDDDAAPEEQQQEKEGNRGDIASSDYSDDFECGSSTSSGADD | soluble |
| RNEHTGELRLGASTTIAQYVLPPLLARFIEKFPQVSLSLFSGNSSEVEKALQEHRIDLALVEGNTRQPNLKYTPFLQDELVAIVHTHSKWMDYDEITLDELKEVPLVLRERGSGTLDVLITALHKHNIKLSDLTIRMHLGSTESIK | not soluble |
| MPVVSNTELSMRRQEILEGARRCFAEHGYEGATVRRLEETVGKSRGAIFHHFSDKENLFLALAREDAARMAEVVAENGLVEVMRDMLAHPERHDWLATRLEITKMLRTDPSFRNRWIEHQRVLDDAVLERLQRNAHLGRMRDDVPIDVLHTYLETVLDGFISRLASGGDTDNLERVLDLVEESVRSSQPS | not soluble |
| MVAYSPIIATYGNRAEQFLETDSDFAKYHAKLNKKLQHLRSRCHLVTKDTKKYSSKNKYGEINSEDYDNKTKLIGVLILLHAERDLALAETLKLRARQRGKLKKSEEKVLSTRLKKACKTADKLVNVTQNEQQWITRAQYLAFAKLVHSEYLINGKRFKRKDNAKISNNLALVFAALEHLKNLSLLAEEVVDNIVNKYQYSLKQYAGNLITTPEINNFIVERVQSDENKDDELVKLLLDNGFNMKKITTSTEDQKVTTNINWRSFNAKIIDAEVAQFLEQGLSIHPTQITQYTQRLSKLEKALDRHEFFIANHDDQDDIDEMVENSSENNQIILAYIKYNILLTSISRERDLFTHLWNQWLKLNTSLPSKLTKYKEMERIVKNLTKYLSDIMELPGVYSDDELLSQLDLCKLYFQLFLNTGCLSVLYQSKGRYMEALALYVDAYRRLENKLSEIESLDEILLPANLLSLNSVRSLQKRIENGGNSVITLAEYEKRNHGGSLGKYDLTVIEKLDSKKILPTDIQLKNLFPLKPKMLPIPSKPTLFDLAFNYITYDKQEPSASQVKDSVTETESISQTPISNEQTEGEPKKKRGFLGLFGR | not soluble |
| MGSDKIHHHHHHMFTGTFTLRSRKSRHDHSSGNVRVCENEDMFESVGTWWRNLTHRHGDDRNNDDTLDDATNTLLSILPLASIVVDEHDEVIRAHPDAYALGVVRDDAIADDTVASAVHEVRAHGGKKQFSLTTTTLHEPKKAPKAGKPTMREVAKQALIGQSPDKPVTTVSRPNWLKVIVGRLNERFVVVLVSDVSETVRFSQIRDSFITNVSEQLLKPTQSLEELADALEHDSDNKAAIEGNTVKLRQSCARMEHMVSDLLLLIKAQEPILPTASNRINVMEQVKTVVDAHRDMAQRRGIDIEIDGDESLDINGEGEQIQAAVAKLLENAIAYSPDGKGITVSVKPNEDGTKVLLSVLDRGCGIAQKEQSRIFERFYRGGNQNGHSEEGIGLGLAIVKHVALTHHGSASVWSAPGQGSTFTLGLPVARN | not soluble |
| MGACRRIFKNYEPCELTICVTIICEPRSPPKFDHWKISKPGCPPKIISCSKATNNDVNREKRSRRKLVKKRTPSEVIEKLEEQEGSENCENVPFDKPLLHSDSATLICDEVATSRSPFEISTNEVENVDIQSEPRDRHVSITSMESVAGLGEADDQDDVTILKGLEEVHEIEVDKTVIEESIPNQPKGQRFDLLSNGDVTIPAMIMNDVDGPKKKLLVRRKKKSKTPDSPPQYRDYTETSIYMYIEMDKQNVGEFVWDQQCTRIDALVAPIVELDRMTTPEIPLEIELFD | not soluble |
| LGFFNRIEKTEKDKSQIDFGSIHGTGWLIDWKEVDKKDKKANKFTVYLATNLHVIQALKNREDHPPYNQFDINFVRTVDFRIGKYTDVKQFVAPS | not soluble |
| MKQFLITGGTGMVGSQLVNKLKNRDVHITILTRSDKQSDDPKISYVNWSKDGWMSQVPDIDVVVNLAGATLNKRWTPSYKQLIMTSRIQSTQSLVDLFSQREHKPEVLFNASAMGYYPPSLYHTYTEKYQTHPFDFLSDVVYQWERFAKRFESFGTRVVLGRFSMILSNDGGALQTMKLPYKFFVGGKLGSGFQWYSWIHINDLVRAILFTIDNPNAKGPFNMAAPIAERQNLFGYTLARVMHRPHETWVPSFLMRLALGEMSTVVLDTQKVLPNKLDALGFTFNYSNLKIAFEDLIDALEHHHHHH | not soluble |
